Values quoted from earlier work in publication PMC3631546.

Molecular target: His37 (UniProt position 37, IIGILHLILWI)
Assay: NMR
Conditions: membrane-bound tetrameric channel, no drug mentioned

For “Influenza A M2 proton channel, transmembrane peptide (M2TM) (Influenza A virus (strain not stated))”, the pKa is given as 8.2.
